The target in assay [1] is T1, mature human TGF-β1 (human, UniProt P01137 279-390).
T1 construct: Bought protein (R&D Systems, Cat # 240-B/CF); also called TGF Beta 1; TGF-b1
Nature of the assay: KinExA 3000, calculated from Kd and kon. Here is the method:
(§1) A KinExA 3000 instrument (Sapidyne Inst. Inc.) measures binding kinetics. Briefly, antigen is covalently-coupled to azlactone beads and the binding of an invention free Fab to the beads is detected on the instrument. […] After incubation, free Fab in each equilibrated sample is determined on KinExA 3000 per manufacturer instructions. Kd values are determined using KinExA 3000 software. To measure kₒₙ, individual Fabs at 2 nM are mixed with 0-240 nM of antigen using the injection method according to manufacturer's instructions, and the unbound Fab is detected. The resulting data is used to calculate the kₒₙ with KinExA 3000 software. The koff is calculated using the formula K_{d=k}off/kₒₙ. Affinity data obtained under KinExA© conditions for Fab embodiments binding TGF Beta 1 are shown below in Table 1.

In assay [2] the target is T1, mature human TGF-β1. As to the kind of experiment: KinExA 3000, equilibrium in solution. Here is the method: as §1
Background: A kinetic exclusion assay measures how much of one partner remains free in solution.

In assay [3] the target is T1, mature human TGF-β1. As to the kind of experiment: KinExA 3000, solution phase, antigen-coupled beads. The method, then:
as §1

Among the data in US20090155285A1 (Eli Lilly, published 2009) are koff, Kd and kon values, retold here.

Broadly, the koff is a measure of how fast the partners let go of each other. What is called Kd is the free concentration of one partner at which half of the binding sites on the other are occupied at equilibrium, for simple one-to-one binding. The term kon denotes a measure of how fast the partners come together. Higher therefore signals fast association.

Positions count from the first letter of the chain named.

T1 sequence (P01137 279-390 limits assumed): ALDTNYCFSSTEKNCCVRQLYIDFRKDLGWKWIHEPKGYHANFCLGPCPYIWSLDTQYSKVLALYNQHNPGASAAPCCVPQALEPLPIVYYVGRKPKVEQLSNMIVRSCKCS

B1: Fab 12.7 (Fab, V domains shown)
VH: QVQLVQSGAEVKKPGASVKVSCKASGYTFTSEWMNWVRQAPGQGLEWMGQIFPALGSTNYNEMYEGRVTMTTDTSTSTAYMELRSLRSDDTAVYYCARGIGNYALDAMDYWGQGTLVTVSS
VL: DIQMTQSPSSLSASVGDRVTITCRASESVDFYGNSFMHWYQQKPGKAPKLLIYLASNLESGVPSRFSGSGSGTDFTLTISSLQPEDFATYYCQQNIEDPLTFGGGTKVEIKR
notes: The mAb was made by linking the Fab to an IgG4 Fc region, so the mAb's chains are named; The heavy chain entry also holds the Fc, which is not in the Fab
As for B1, in assay [1], the off-rate (koff) was 3.4e-07 s⁻¹. The molecule further came in with a Kd in assay [2] of 0.09 pM. In assay [3], this molecule yielded a kon of 3.7e+06 M⁻¹ s⁻¹.

B2: Fab 12.8 (Fab, V domains shown)
VH: B1 VH with E32Y, Y64F
VL: B1 VL with F31W, L54Y, I96A
notes: as for B1
With B2, in assay [1], the koff is 5.5e-06 s⁻¹. In assay [2], this molecule gave a Kd of 0.22 pM. Further, the on-rate constant (kon) in assay [3] stood at 2.6e+07 M⁻¹ s⁻¹.
